To fix the notation:
B1: TPP-18068 (antibody, mouse IgG1)
heavy: EVQLLESGGGLVQPGGSLRLSCAASGFTFSSYGMHWVRQAPGKGLEWVSVISYDGSYKYYADSVKGRFTISRDNSKNTLYLQMNSLRAEDTAVYYCAAGVPDYWGQGTLVTVSSAKTTPPSVYPLAPGSAAQTNSMVTLGCLVKGYFPEPVTVTWNSGSLSSGVHTFPAVLQSDLYTLSSSVTVPSSTWPSETVTCNVAHPASSTKVDKKIVPRDCGCKPCICTVPEVSSVFIFPPKPKDVLTITLTPKVTCVVVDISKDDPEVQFSWFVDDVEVHTAQTQPREEQFNSTFRSVSELPIMHQDWLNGKEFKCRVNSAAFPAPIEKTISKTKGRPKAPQVYTIPPPKEQMAKDKVSLTCMITDFFPEDITVEWQWNGQPAENYKNTQPIMDTDGSYFVYSKLNVQKSNWEAGNTFTCSVLHEGLHNHHTEKSLSHSPGK
light: QSVLTQPPSASGTPGQRVTISCTGSSSNIGAGYDVHWYQQLPGTAPKLLIYSNNERPSGVPDRFSGSKSGTSASLAISGLRSEDEADYYCAAWDDSLNGPVFGGGTKLTVLGQPKSSPSVTLFPPSSEELETNKATLVCTITDFYPGVVTVDWKVDGTPVTQGMETTQPSKQSNNKYMASSYLTLTARAWERHSSYSCQVTHEGHTVEKSLSRADCS
notes: mIgG1, Lambda; also called WT; parent clone
B2: TPP-26319 (antibody, V domains shown)
VH: EVQLLESGGGLVQPGGSLRLSCAASGFTFSSYGMHWVRQAPGKGLEWVSVISYDGSYKYYADSVKGRFTISRDNSKNTLYLQMNSLRAEDTAVYYCAAGVPDYWGQGTLVTVSS
VL: QSVLTQPPSASGTPGQRVTISCTGSSSNIGAGYDVHWYQQLPGTAPKLLIYSNNEKPSGVPDRFSGSKSGTSASLAISGLRSEDEADYYCAAWDDSLNGPVFGGGTKLTVL
notes: constant regions not restated
B3: TPP-26325 (antibody, V domains shown)
VH: B2 VH with S31W
VL: B2 VL with K56R
notes: constant regions not restated
B4: TPP-26326 (antibody, V domains shown)
VH: B2 VH with S31Y
VL: B2 VL with K56R
notes: constant regions not restated
B5: TPP-26321 (antibody, V domains shown)
VH: B2 VH
VL: B2 VL with K56R, D95L
notes: constant regions not restated
B6: TPP-26324 (antibody, V domains shown)
VH: B2 VH with A61R
VL: B2 VL with K56R
notes: constant regions not restated
B7: TPP-26329 (antibody, V domains shown)
VH: B2 VH with Y32W
VL: B2 VL with K56R
notes: constant regions not restated
B8: TPP-26328 (antibody, V domains shown)
VH: B2 VH with G99T
VL: B2 VL with K56R
notes: constant regions not restated
B9: TPP-26323 (antibody, V domains shown)
VH: B2 VH
VL: B2 VL with K56R, D95G
notes: constant regions not restated
B10: TPP-26320 (antibody, V domains shown)
VH: B2 VH
VL: B2 VL with N54E, K56R
notes: constant regions not restated
B11: TPP-26330 (antibody, V domains shown)
VH: B2 VH with S31F
VL: B2 VL with K56R
notes: constant regions not restated
B12: TPP-26331 (antibody, V domains shown)
VH: B2 VH with M34G
VL: B2 VL with K56R
notes: constant regions not restated
B13: TPP-31277 (antibody, human IgG4, V domains shown)
VH: EVQLLESGGGLVQPGGSLRLSCAASGFTFSHYDMNWLRQAPGKGLEWVGVISYDGSNKFYADFVKGRFTISRDNSKNTLYLQMNSLRAEDTAVYYCARTPGSHFDYWGQGTLVTVSS
VL: QSVLTQPPSASGTPGQRVTISCSGSSSNIGSNAVNWYQQLPGTAPKLLIYYDDLLPSGVPDRFSGSKSGTSASLAISGLRSEDEADYYCSAWDDSLNGVVFGGGTKLTVL
notes: consecutive numbering; also called VL-N31S
B14: TPP-31284 (antibody, human IgG4, V domains shown)
VH: B13 VH
VL: B13 VL with S31N, L55R
notes: consecutive numbering; also called VL-L55R
B15: TPP-31287 (antibody, human IgG4, V domains shown)
VH: B13 VH with L5V
VL: B13 VL with S31N
notes: consecutive numbering; also called VH-L5V
B16: TPP-31286 (antibody, human IgG4, V domains shown)
VH: B13 VH with E1Q
VL: B13 VL with S31N
notes: consecutive numbering; also called VH-E1Q
B17: TPP-31281 (antibody, human IgG4, V domains shown)
VH: B13 VH
VL: B13 VL with S31N, D52N
notes: consecutive numbering; also called VL-D52N
B18: TPP-31278 (antibody, human IgG4, V domains shown)
VH: B13 VH
VL: B13 VL with S31N, A33Y
notes: consecutive numbering; also called VL-A33Y
B19: TPP-31283 (antibody, human IgG4, V domains shown)
VH: B13 VH
VL: B13 VL with S31N, L54Q
notes: consecutive numbering; also called VL-L54Q
B20: TPP-31282 (antibody, human IgG4, V domains shown)
VH: B13 VH
VL: B13 VL with S31N, D53N
notes: consecutive numbering; also called VL-D53N
B21: TPP-31290 (antibody, human IgG4, V domains shown)
VH: B13 VH with H31S
VL: B13 VL with S31N
notes: consecutive numbering; also called VH-H31S
B22: TPP-31285 (antibody, human IgG4, V domains shown)
VH: B13 VH
VL: B13 VL with S31N, S90A
notes: consecutive numbering; also called VL-S90A
B23: TPP-31288 (antibody, human IgG4, V domains shown)
VH: B13 VH with L11V
VL: B13 VL with S31N
notes: consecutive numbering; also called VH-L11V
B24: TPP-31289 (antibody, human IgG4, V domains shown)
VH: B13 VH with G16R
VL: B13 VL with S31N
notes: consecutive numbering; also called VH-G16R

We go through 24 molecules from patent publication US20240317847A1 (Bayer, published 2024).

Substitutions are numbered along the chain they refer to. Numbers in names are those of the source.

In the first assay the target is T1, murine IL-11 (mouse, UniProt P47873 22-199).
T1 construct: bought from Invigate; also called mIL-11; mIL11
T1 sequence: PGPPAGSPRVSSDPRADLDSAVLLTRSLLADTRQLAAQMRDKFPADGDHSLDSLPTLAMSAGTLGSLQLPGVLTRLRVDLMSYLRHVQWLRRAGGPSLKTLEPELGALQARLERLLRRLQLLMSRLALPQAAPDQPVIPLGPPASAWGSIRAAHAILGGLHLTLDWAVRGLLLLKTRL
As to the kind of experiment: SPR, antibody captured, IL-11 as analyte. As for the experimental part:
(§1) Antibodies were captured via anti-mouse Fc IgGs (“Mouse antibody capture kit, Order No. BR100383, Cytiva) covalently amine coupled to a Series S CM5 sensor chip (Cytiva). The amine coupling was carried out according to the manufacturer's instructions using 1-ethyl-3-(3-dimethylaminopropyl) carbodiimide hydrochloride (EDC), N-hydroxysuccinimide (NHS) and ethanolamine HCl, pH 8.5 (“Amine Coupling Kit” BR-1000-50, Cytiva.). Human IL-11 (Invigate, e.g., lot #C121021-19), and murine IL-11 (Invigate, e.g., lot #C210819-09) were used as analytes. […] Based on that experiment an IL-11 concentration range was chosen to optimally determine kinetics and affinity of anti-IL-11 antibodies in multicycle kinetics mode. The sensor surface was regenerated with glycine pH 1.7 after each antigen injection. Obtained sensorgrams were double referenced (subtraction of reference flow cell signal and buffer injection) and were fitted to a 1:1 Langmuir binding model to derive kinetic data using the Biacore T200 Evaluation software or the Biacore Insight software.
(§2) 42 hits from the IL-11 and […] screening analysis were selected, expressed by transient transfection of mammalian cells and purified as described in Example 15. Antibodies were then tested for human IL-11 and murine IL-11 binding by SPR as described in Example 16.
In general terms: In SPR one partner is held on a chip, and binding of the other changes the refractive index at the surface.
B1 came in with an equilibrium dissociation constant (Kd) of 0.86 nM.
On to B2, for which binding was put at a Kd of 1.4 nM.
Turning to B3, the binding result is “no binding”.
For the molecule B4, the affinity, expressed as Kd, was 1.2 nM.
The same measure, in the same setting: under B5 stands 0.94 nM.
Molecule B6 gave a Kd of 1.2 nM.
The molecule B7 registered an equilibrium dissociation constant (Kd) of 0.92 nM.
Still for that read-out and setting: under B8 stands 1.3 nM; under B9, 0.58 nM.
B10 displayed a Kd of 0.83 nM.
The same measure, in the same setting: under B11 stands 1.7 nM; under B12, 0.95 nM.

For a further assay, the target named is T2, human IL-11 (human, UniProt P20809 22-199).
T2 construct: bought from Invigate; also called hIL-11; hIL11
T2 sequence: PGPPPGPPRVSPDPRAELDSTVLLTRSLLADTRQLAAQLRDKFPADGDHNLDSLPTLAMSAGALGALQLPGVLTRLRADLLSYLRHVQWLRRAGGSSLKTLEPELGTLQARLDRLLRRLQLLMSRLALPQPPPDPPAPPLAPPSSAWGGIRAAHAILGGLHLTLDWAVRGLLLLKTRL
As to the kind of experiment: SPR, antibody captured, IL-11 as analyte. How it is done:
as §1, §2
Regarding B1, binding was put at a Kd of 12 nM.
The same measure, in the same setting: next, B2: 12 nM; B3: 6.4 nM.
The molecule B4 displayed an equilibrium dissociation constant (Kd) of 9.3 nM.
Take B5: the affinity, expressed as Kd, was 9.3 nM.
The same measure, in the same setting: under B6 stands 13 nM.
In turn, B7 gave a Kd of 14 nM.
Take B8: the dissociation constant (Kd) was 12 nM.
Regarding B9, the Kd is 10 nM.
Same read-out and setting: under B10 stands 13 nM.
On to B11, for which the Kd turned out to be 9.5 nM.
Regarding B12, the affinity, expressed as Kd, was 15 nM.

The target in a further assay is T3, murine IL-11 (Invigate, e.g., lot #C210819-09) (mouse, UniProt P47873 22-199).
T3 construct: Bought protein; biotinylated where captured on streptavidin plates; also called mIL-11; mIL11
T3 sequence: T1 sequence
As to the kind of experiment: SPR, Biacore 8K; antibody captured on anti-human IgG Fc chip, IL-11 analyte 0-50 nM, 1:1 fit. As for the experimental part: (§3) Antibody binding affinity to hIL-11 (Invigate, Germany, e.g., lot #C121021-19) and mIL-11 (Invigate, Germany, e.g., lot #C210819-09) was detected using Biacore 8K. Each antibody was captured on an anti-human IgG Fc antibody immobilized CM5 sensor chip (GE). hIL-11 and mIL-11 at different concentrations (0, 5, 15.82 and 50 nM) in 1×HBS-EP+ (pH 7.4) (GE healthcare) were injected over the sensor chip at a flow rate of 30 μL/min for an association phase of 120 s, followed by 200 s dissociation phase. The chip was then regenerated by 10 mM Glycine, pH 1.5 after each binding cycle.
(§4) The sensorgrams of blank surface and buffer channel were subtracted from the test sensorgrams. The experimental data was fitted by 1:1 model using Langmiur analysis. Molecular weight of 19.3 kDa was used to calculate the molar concentration of human and mouse IL-11.
The molecule B13 had a Kd of 12 nM.
Regarding B14, binding was put at a Kd of 15 nM.
As for B15, binding was characterised by a dissociation constant (Kd) of 13 nM.
B16 gave a Kd of 12 nM.
Molecule B17 showed an equilibrium dissociation constant (Kd) of 130 nM.
Take B18: the affinity, expressed as Kd, was 1.2 nM.
Still for that read-out and setting: under B19 stands 41 nM.
The molecule B20 yielded a Kd of 19 nM.
With B21, the Kd was 300 nM.
Still for that read-out and setting: next, B22: 18 nM.
B23 registered a Kd of 15 nM.
Regarding B24, the equilibrium dissociation constant (Kd) amounted to 14 nM.

Another assay addresses T4, human IL-11 (Invigate, e.g., lot #C121021-19) (human, UniProt P20809 22-199).
T4 construct: Bought protein; also called hIL-11; hIL11
T4 sequence: T2 sequence
Described as above. As for the experimental part: as §3, §4
Consider B13, for which the Kd amounted to 9.4 nM.
B14 came in with a dissociation constant (Kd) of 11 nM.
In the case of B15, binding was put at a Kd of 9.3 nM.
Regarding B16, the Kd came out at 9.1 nM.
Turning to B17, the dissociation constant (Kd) came to 170 nM.
On to B18, for which the dissociation constant (Kd) was found to be 2 nM.
The molecule B19 gave a Kd of 48 nM.
Regarding B20, the affinity, expressed as Kd, was 13 nM.
As to B21, the Kd amounted to 290 nM.
Regarding B22, the dissociation constant (Kd) was 7.6 nM.
Take B23: the equilibrium dissociation constant (Kd) was 11 nM.
B24 came in with a Kd of 9.6 nM.

For orientation: Kd means the constant that tells how readily two partners part at equilibrium. Low readings indicate tighter binding, high ones weaker binding.
